Values of other authors as cited in patent publication US20200378979.

What was measured:
thrombin (cited work) [1] = target: T1, thrombin (cited work) (UniProt P00734+P00734); assay: FP; conditions: 5'-FAM; CITED Van Riesen et al. 2018
thrombin (cited work) [2] = target: T1, thrombin (cited work); assay: ITC; conditions: CITED Pagano et al. 2008

For GGTTGGTGTGGTTGG [5'-FAM-TBA], the Kd (thrombin (cited work) [1]) is given as 4900 nM.

For GGTTGGTGTGGTTGG [native TBA], the Kd (thrombin (cited work) [2]) is listed as 330 nM.
